Results reported in IntAct's records for PubMed 16888620.

B1: Serine/threonine-protein kinase Sgk3 (Homo sapiens), Q96BR1 (parent)
chain: MQRDHTMDYKESCPSVSIPSSDEHREKKKRFTVYKVLVSVGRSEWFVFRRYAEFDKLYNTLKKQFPAMALKIPAKRIFGDNFDPDFIKQRRAGLNEFIQNLVRYPELYNHPDVRAFLQMDSPKHQSDPSEDEDERSSQKLHSTSQNINLGPSGNPHAKPTDFDFLKVIGKGSFGKVLLAKRKLDGKFYAVKVLQKKIVLNRKEQKHIMAERNVLLKNVKHPFLVGLHYSFQTTEKLYFVLDFVNGGELFFHLQRERSFPEHRARFYAAEIASALGYLHSIKIVYRDLKPENILLDSVGHVVLTDFGLCKEGIAISDTTTTFCGTPEYLAPEVIRKQPYDNTVDWWCLGAVLYEMLYGLPPFYCRDVAEMYDNILHKPLSLRPGVSLTAWSILEELLEKDRQNRLGAKEDFLEIQNHPFFESLSWADLVQKKIPPPFNPNVAGPDDIRNFDTAFTEETVPYSVCVSSDYSIVNASVLEADDAFVGFSYAPPSEDLFL

Variants of: B1
Settings: with itch_human ITCH

**Q.** Which “effect of a mutation on the interaction” value does the source give for Y362A here?
**A.** The value was “decreasing interaction”.
